Assays:
[1] = biological target: 2C T cell receptor on CD8+ T cells of 2C TCR transgenic mice (mouse); experiment: flow cytometry off-rate assay on naive 2C T cells, derived from off-rate
[2] = biological target: 2C T cell receptor on CD8+ T cells of 2C TCR transgenic mice (mouse); experiment: flow cytometry off-rate assay on activated 2C T cells, derived from off-rate
[3] = biological target: 2C T cell receptor on CD8+ T cells of 2C TCR transgenic mice (mouse); experiment: estimated from dissociation data, naive 2C T cells; one contact is assumed for the dimer on naive cells
[4] = biological target: 2C T cell receptor on CD8+ T cells of 2C TCR transgenic mice (mouse); experiment: flow cytometry off-rate assay on activated 2C T cells, APC-labeled MHC-Ig, 1B2 added to prevent re-binding, exponential fit
[5] = biological target: 2C T cell receptor on CD8+ T cells of 2C TCR transgenic mice (mouse); experiment: flow cytometry off-rate assay on naive 2C T cells, APC-labeled MHC-Ig, 1B2 added to prevent re-binding, exponential fit
[6] = biological target: 2C T cell receptor on CD8+ T cells of 2C TCR transgenic mice (mouse); experiment: estimated from dissociation data, activated 2C T cells
[7] = biological target: 2C T cell receptor on CD8+ T cells of 2C TCR transgenic mice (mouse); experiment: off-rate assay, flow cytometry, activated against naive T cells
[8] = biological target: 2C T cell receptor on CD8+ T cells of 2C TCR transgenic mice (mouse); experiment: estimated from dissociation data, naive cells (6.8 contacts)
[9] = biological target: pmel T cell receptor on CD8+ T cells of pMEL TCR transgenic mice (mouse) (UniProt Q60696); experiment: flow cytometry, Alexa 647 labeled particles on control non-cognate CD44lo pmel T cells
[10] = biological target: 2C T cell receptor on CD8+ T cells of 2C TCR transgenic mice (mouse); experiment: estimated from dissociation data, naive 2C T cells
[11] = biological target: 2C T cell receptor on CD8+ T cells of 2C TCR transgenic mice (mouse); experiment: flow cytometry, Alexa 647 labeled particles bound to activated 2C T cells (seven days after peptide activation)
[12] = biological target: 2C T cell receptor on CD8+ T cells of 2C TCR transgenic mice (mouse); experiment: flow cytometry off-rate assay on naive 2C T cells, APC-labeled nanoparticles bearing K^b-SIY alone, 1B2 added to prevent re-binding, exponential fit
[13] = biological target: 2C T cell receptor on CD8+ T cells of 2C TCR transgenic mice (mouse); experiment: estimated from dissociation data, activated cells (12.6 contacts)
[14] = biological target: 2C T cell receptor on CD8+ T cells of 2C TCR transgenic mice (mouse); experiment: flow cytometry, Alexa 647 labeled particles bound to naive CD44lo 2C T cells
[15] = biological target: 2C T cell receptor on CD8+ T cells of 2C TCR transgenic mice (mouse); experiment: equilibrium particle binding assay, flow cytometry, activated against naive T cells
[16] = biological target: 2C T cell receptor on CD8+ T cells of 2C TCR transgenic mice (mouse); experiment: flow cytometry off-rate assay on activated 2C T cells, APC-labeled nanoparticles bearing K^b-SIY alone, 1B2 added to prevent re-binding, exponential fit

Chain of UniProt Q60696 (Q60696 whole entry): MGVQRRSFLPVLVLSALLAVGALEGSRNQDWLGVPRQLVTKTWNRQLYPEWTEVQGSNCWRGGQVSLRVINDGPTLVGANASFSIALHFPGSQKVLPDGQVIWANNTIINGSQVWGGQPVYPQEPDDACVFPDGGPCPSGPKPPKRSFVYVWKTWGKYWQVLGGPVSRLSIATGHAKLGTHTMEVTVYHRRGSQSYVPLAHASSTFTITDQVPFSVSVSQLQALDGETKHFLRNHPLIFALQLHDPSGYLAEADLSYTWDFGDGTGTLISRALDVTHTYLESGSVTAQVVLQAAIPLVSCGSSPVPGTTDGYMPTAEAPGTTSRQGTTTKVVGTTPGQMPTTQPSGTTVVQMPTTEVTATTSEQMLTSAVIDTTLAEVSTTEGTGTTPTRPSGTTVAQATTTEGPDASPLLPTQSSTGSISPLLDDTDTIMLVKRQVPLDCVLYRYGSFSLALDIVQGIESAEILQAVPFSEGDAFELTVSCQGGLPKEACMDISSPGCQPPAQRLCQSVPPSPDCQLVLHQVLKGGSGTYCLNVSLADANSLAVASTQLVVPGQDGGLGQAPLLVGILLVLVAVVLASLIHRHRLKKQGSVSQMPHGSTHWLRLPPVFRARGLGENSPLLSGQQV

Substance | Half-Life [1] [min] | Half-Life [2] [min] | TCR-MHC Contacts [3] [contacts] | koff [4] [s⁻¹] | koff [5] [s⁻¹] | TCR-MHC Contacts [6] [contacts] | fold slower disassociation from activated than from naive cells [7] [fold] | percent of MHC-Ig dimers on the particle surface in TCR-MHC contacts [8] [%] | MFI [9] [MFI] | TCR-MHC Contacts [10] [contacts] | MFI [11] [MFI] | koff [12] [s⁻¹] | percent of MHC-Ig dimers on the particle surface in TCR-MHC contacts [13] [%] | MFI [14] [MFI] | fold fewer nanoparticles bound at equilibrium by activated than by naive cells [15] [fold] | koff [16] [s⁻¹]
K^b-SIY MHC-Ig dimer (soluble K^b-Ig loaded with SIY peptide) (from UniProt P01901 22-305) (peptide-MHC) | 1.3 | 1.87 | 1 | 0.0052 | 0.0089 | 1.7 |  |  |  |  |  |  |  |  |  | 
Nanoparticles bearing K^b-SIY MHC-Ig alone (iron-dextran nanoparticle, no anti-CD28) (from UniProt P01901 22-305) (peptide-MHC) | 8.85 | 16.4 |  |  |  | 12.6 | 2 | 11 | 21 | 6.8 | 89 | 0.002 | 22 | 179 | 2 | 0.0009
